How the values were obtained:
[1] = molecular target: SIRK1-ECD-HA-StrepII (extracellular domain of SIRK1) (Arabidopsis); assay: MST
[2] = molecular target: SIRK1-ECD together with co-receptor QSK1-ECD (about 20 nM each) (Arabidopsis); assay: MST

B1: PEP7 (Elicitor Peptide 7), synthetic, untagged (peptide)
peptide: VSGNVAARKGKQQTSSGKGGGTN
Kd [1]: 1440 nM
Kd [2]: 57 nM

Reference: doi:10.1101/2022.04.05.486672
